Data on 41 sequences can be found in the nanobody polyreactivity screen of Harvey et al. (2022).

This data set can be described thus: yeast display, Sf9 membrane polyspecificity reagent, FACS + sequencing; frameworks hold sequencing errors. An outline of the steps: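 Genes from sorted yeast were amplified by colony PCR, read by MiSeq 2 × 250 sequencing and filtered on CDR length. These cells carried a synthetic nanobody library in Saccharomyces cerevisiae BJ5465 and were sorted by FACS into low and high (top ~1%) gates on anti-HA and streptavidin fluorescence. Polyreactivity is labelled according to the gate of origin.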
As to “QVQLVESGGGLVQAGGSLRLSCAASGIIFSQYAMGWYRQAPGKERELVASISSGGRTNYADSVKGRFTISRDNAKNTVYLQMNSLKPEDTAVYYCATRYRYKRYAASVQYDYWGQGTQVTVSS”, the “polyreactivity (PSR sort gate)” value was “high polyreactivity”.

Regarding “QVQLVESGGGLVQAGGSLRLICAASGLTFDTYSMGWYRQAPGKERELVAAISIGGRTNYADSVKGRFTISRDNAKNTVYLQMNSLKPEDTAVYYCARVFRYNSYYLPYDYWGQGTQVTVSS”, the “polyreactivity (PSR sort gate)” value is on record as “high polyreactivity”.

Turning to “QVQLVESGGGLVQAGGSLRISCAASGRILGKYAMGWYRQAPGKESELVAAIRLRGGSTYYADSVKGRFTISRDNEKNSVYLQMNSLKPEDTAVYYCAARYWDRSQAYNDWGQGTQVTVSS”, the “polyreactivity (PSR sort gate)” value is on record as “high polyreactivity”.

For “QVQLVESGGGLVQAGGSLRLSCAASGYTSYVYAMGWYRQAPGKERELVAAISLRTASTYYADSVKGRFTISRDTAQKTVYVQMNSLKPEDTAVYYCARGRETYRYSYRLNYWGQGTQVTVSS”, the “polyreactivity (PSR sort gate)” value is “high polyreactivity”.

As for “QVQLVESGGGLVQAGGSLRLSCAASGSIFYVNGMGWSRQAPGKERELVARITLSGTSTYYADSVKGRFTISRDNAKNTVYLQMNSLKPEDTAVYYCAAPYFTYGQDDDDYWGQGTQVTVSS”, the “polyreactivity (PSR sort gate)” value is listed as “low polyreactivity”.

Turning to “QVQLVESGGGLVQAGGSLRLSCAASGFTFAYYAMGWYRQAPGKEREFVAAINKGGGSTNYADSVKGRFTISRDNAKNTVYLQMNSLKPEDTAVYYCNADYFVWYIGRVFSRYGYWGQGTQVTVSS”, the “polyreactivity (PSR sort gate)” value was “low polyreactivity”.

With “QVQLVESGGGLVQAGGSLLLSCAASGSIFGGNAMGWSRQAPGKVRELVAAITSSGGSTYYADSVKGRFTISRDNAKNTVYLQMNSLKPEDTAVYYCNKLSWRKYLGYEYWGQGTQVTVSS”, the “polyreactivity (PSR sort gate)” value was “high polyreactivity”.

For “QVQLVESGGGLVQAGGSLRLSCAASGLTFGLNAMGWYRQAPGKEREVVAAITWSGGSTYYADSVKGRFTISRDNAKNTVYLQMNSLKPEDTAVYYCATDNWSVNGGYNYWGQGTHVTVSS”, the “polyreactivity (PSR sort gate)” value was “low polyreactivity”.

Consider “QVQLVESGGGLVQAGGSLRLSCAASGGTFLVYAMGWYRQAPGKERELVAAITRSGGSTYYADSVKGRFTISRDNAKNTVYLQMNSLKPEDTAVYYCNARYRNSGRYWDWYYYWGQGTQVTVSS”, for which the “polyreactivity (PSR sort gate)” value is given as “high polyreactivity”.

With “QVQLVESGGGLVQAGASLRLSCAASGRTFGGYAMGWYRQAAGKERELVAAISYSGGSTYYADSVKGRFTISRDYAKNTVYLQMNSLKPEDTAVYYCAADGFDAYYWGQGTQVTVSS”, the “polyreactivity (PSR sort gate)” value is on record as “low polyreactivity”.

On to “QVQIVESGGGLVQAGGSLRLSCAASGTTFDKYAMGWYRQAPGKERELVAAITTNGGNTYADSVKGRFTISRDNAKNTVYLQMNSLKPEDTAVYYCAADGPGGKGLYYYWGQGTQVTVSS”, for which the “polyreactivity (PSR sort gate)” value is listed as “high polyreactivity”.

For the sequence “QVQLVESGGGLVQAGGSLRLSCAASGSIFAWYGMGWYRQAPGKERELVAAITSTGSTYYADSVKGRFTISRDNAKNTVYLQMNSLKPEDTAVYYCNDYSVYLWRPGDYWGQGTQVTVSS”, the “polyreactivity (PSR sort gate)” value is “low polyreactivity”.

On to “QVQLVESGRGLVQAGGSLRLSCAASGRTFDPYAMGWYRQAPGKERELVAAITSGDDTYYADSVKGRFTISRDYAKNTVYLQMNSLKPEHTAVYYCAADSFTPDYYYHDYWGQGTQVRVSS”, for which the “polyreactivity (PSR sort gate)” value is listed as “low polyreactivity”.

With “QVQLVESGGGLVQAGGSLRLSCAASGRIFKRYVMGWYRQAPGKERELVSAISVRGASTYYADSVKGRFTISRDNAKNTVYLQMNSLKPEDTAVYYCATAGYRLLDYWGQGTQVTVSS”, the “polyreactivity (PSR sort gate)” value is “high polyreactivity”.

With “QVQLVESRGGLVQAGGSLRLSCAASGRTFWYYAMGWYRQAPGKELELVATITGSGGTTYYADSVKGRFTISRDNAKNTVYLQMNSLKPEDTAVYYCAKEQHWYIYGPAEVDYWGQGTQVTVSS”, the “polyreactivity (PSR sort gate)” value is “high polyreactivity”.

“QVQLVESGGGLVQAGGSLRLSCAASGSNFTVYAMGWYRQAPGKDGELVAAISYNGGCTYYADSVKGRFTISRDNAKNTVYLQMNSLKPEDTAVYYCAARYRDRGRRAEYEYWGQGTQVTVSS”: the “polyreactivity (PSR sort gate)” value was “high polyreactivity”.

Turning to “QVQLVESGGGLVQAGGSLRLSCAASGRIFYYNAMGWYRPAPGKERELVATITGSGGSTYYADSVKGRFTISRDNAKNTVYLQMNSLKPEDTAVYYCNATRWYYDFYKLDYWGQGTQVTVSS”, the “polyreactivity (PSR sort gate)” value was “low polyreactivity”.

Regarding “QVQLVESGGGLVQAGGSLRLSCAASGSTFDQNVMGWYRQAPGKERELVATINFSGDSTYYADSVKGRFTISRDNAKNTVYLQMNSLKPEDTAVYYCAVDWGEYIDTSVKRDISYYWGQGTQVTVSS”, the “polyreactivity (PSR sort gate)” value is on record as “low polyreactivity”.

Consider “QVQLVESGGGLVQAGGSLRLSCAASGYTFRYYAMGWYRQAPGKERELVARITGRAGSTYYADSVKGRFTISRDNAKNTVYLQMNSLKPEDTAVYYSAASIREGFYWGQGTQVTVSS”, for which the “polyreactivity (PSR sort gate)” value was “high polyreactivity”.

As to “QVQLVDSGGGLVQAGGSLRLSCAASGRTFRSNAMGWYRQAPGKERELVAAITGSGGRTYYADSVKGRFTISRDNAKNTVYLQMNSLKPEDTAVYYCAARGRAHWHYDDWGQGTQVTVSS”, the “polyreactivity (PSR sort gate)” value was “high polyreactivity”.

As for “QVQLVESGGGLVQGGGSLRLSCAASGFIFSRYAMGWYRPAPGKERELVAAISRTGSTNYADSVKGRFTISRDNAKNTVYLQMNSLNPEDTAVYYCNARYITFNGYGYGYWEQGTQVTVSS”, the “polyreactivity (PSR sort gate)” value is on record as “high polyreactivity”.

With “QVQLVESGGGLVQAGGSLRLSCPASGSTLAWYTMGWYRQAPGKEREFVAVITGSGGSTFYADSVKGRFTISRDNAKNTVYLQMNSLKPEDTAVYYCAADYLYYVTQHRRFHLDYWGQGTQVTVSS”, the “polyreactivity (PSR sort gate)” value was “low polyreactivity”.

For “QVQLVESGGGLVQAGGSLRVCCAASGRIFGNYAMGWYRQAPGKDRELVAAISGGGSTYYADSVKGRFTISRDNAKNTVYVQMNSLKPEDTAVYYCAAKPTYRGYGYGSWGQGTQVTVSS”, the “polyreactivity (PSR sort gate)” value is on record as “low polyreactivity”.

With “QVQLVESGGGLVQAGGSLRLSCAASGSIFGYYTMGWYRPAPGKERELVAAITSGGSTNYADSVKGRFTISRDNAKNTVYLQMNSLKPEDTAVYYCAKVSYYPWRYDYWGQGTQVTVSS”, the “polyreactivity (PSR sort gate)” value is listed as “low polyreactivity”.

For the sequence “QVQLVESGGGLVQAGGSLRLSCAASGNTFIDYAMGWYRQAPGKERELVASITSGGGSTYYADSVKGRFTISRDNAKNTVYLQMNSLKPEDTAVYYCAAERYYSEAIFRSYDYWGQGTQVTVSS”, the “polyreactivity (PSR sort gate)” value is on record as “low polyreactivity”.

Turning to “QVQLVESGGGLVQAGGSLRLSCAASGGIFSENALGWYRQAPGKERELVAVITTSGGSTYYADSVKGRFTISRDNAKNTVYLQMNSLKPEDTAVYYCAADVLSWEYDYWGQGTQVTVSS”, the “polyreactivity (PSR sort gate)” value was “low polyreactivity”.

As to “QVQLVESGGGLVQAGGSLRLSCAASGLISWLYVMGWYRQAPGKERELVAAIRYSGGRTYYADSVKGRFTISRDNAKNTVYLQMNSLKPEDTAVYYCAAEEQVVKAHGDYWGQGTQVTVSS”, the “polyreactivity (PSR sort gate)” value is reported as “low polyreactivity”.

“QVQLVESGGGLVQAGGSLRLSCAASGFTFHNYAMGWYRQAPGKERDFVAAITRNTASTYYADSVKGRFTISRDNAKNTVYLQMNSLKPEDTAVYYCNASRVVYRQAYLYGYDYWGQGTQVTVSS”: the “polyreactivity (PSR sort gate)” value is recorded as “low polyreactivity”.

For “QVQLVESGGGLVQAGGSLRLSCAASGIIFSYYAMGWYRPEHGKEREFVAVITTGGGSTSYADSVKGRFTISRDNAKNTVYLQMNSLKPEDTAVYYCTAGHLGLDGIQDGVDYWGQGTQVTVSS”, the “polyreactivity (PSR sort gate)” value was “low polyreactivity”.

Regarding “QVQLVESGGGLVQAGGSLRLSCAASGSIMYVYAMGWYRQAPGKERELVAVITSGGSTNYAESVKGRFTISRDNAKNTVFLQMNSLKPEDTAVYYCAADPYSVYGGDYWGQGTQVTVSS”, the “polyreactivity (PSR sort gate)” value is listed as “low polyreactivity”.

As to “QVQLVESGGGLVQAGGSLRLSCAASGRILVSYARGWYRQAPGKERELVAGITSGGDSTYYADSVKGRFTISRDNAKNTVYLQMNSLKPADTAVYSCAADRYGYRGRKNVRERYNYWGQGTQVTVSS”, the “polyreactivity (PSR sort gate)” value was “high polyreactivity”.

Regarding “QVQLVESGGGLVQAGGSHRLSCAASGSTFFRNAKGWYSQAPGKEREWVAANSYSGDSTYYADSVKGRFTISRDNEKNTVSLQMNRLKPDDTAVYYSNAVLFRYRYNYWGQGTQVNVSS”, the “polyreactivity (PSR sort gate)” value is given as “high polyreactivity”.

As for “QVQLVESGGGLVQAGGSLRLSCAASGSIFATHAMGWYRQAPGQDRELVAAISWRTGSTVYADSVKGRFTISRDNAKNTDYLQMNSLKPEDTAVYYCAATRRGDNYRYDYWGQGTQVTVSS”, the “polyreactivity (PSR sort gate)” value was “high polyreactivity”.

On to “QVQLVESGGGLVQAGGSLRLSCAASGSTFYRYAMGWYRQAPGKERELVAAISSDGTTYYADSVKGRFTISRDNAKNTVYLQMISLKPEDTAVYDCAAEGIRRSQRFNYWGQGTQVTVSS”, for which the “polyreactivity (PSR sort gate)” value is recorded as “high polyreactivity”.

Take “QVQLVESGGGLVQAGGSLRLSCAASGRIFGRNAMGWYRQAPGKERELVAAISSSGGTYYADSVKGRFTISRDNAKNTVYLQMNSLKPEDTAVYYCAADGPVTGWFYTAIGWVKYDYWGQGTQVTVSS”: the “polyreactivity (PSR sort gate)” value is recorded as “high polyreactivity”.

“QVQLVESGGRLVQAGGSLRLSCAASGRTFTAYTMGGYRQAPGKERELVASNSSGVTYADSVKGRFTISRDNAKNTVYLQMNSLKPEDTAVYYCAARLWYVQGYVPYVHHRFDYWGQGTQVTVSS”: the “polyreactivity (PSR sort gate)” value is given as “low polyreactivity”.

In the case of “QVQLVESGGGLVQAGGSLRLSCAASGSIFNVYAMGWYRQAPGKERELVAAISDGDGSTFYADSVKGRFTISRDNAKNTVYLQMNSLKPEDTAVYYCAKDYRWDRKFDYWGQGTQVTVSS”, the “polyreactivity (PSR sort gate)” value is reported as “low polyreactivity”.

Take “QVQLVESGGGLVQAGGSLRLSCAASGTLSRYAMGWYIQAPGKERELVAAISWTGGSTYYADSVKGRFTISRDNAKYTVYLQMNSLKPEDTAVYYCNGAWRLRGDATYGYWGQGTQVTVSS”: the “polyreactivity (PSR sort gate)” value is “high polyreactivity”.

With “QVQLVESGGGLVQAGGSLRLSCAASGSIFVENAMGWNRQAPGKEREFVAAITRSGGSTYYADSVKGRFTISRDNAKNTVYLQMKILKPEDTAVYYCSARIWDEQPAGGYYWGQGTQVTVSS”, the “polyreactivity (PSR sort gate)” value is on record as “low polyreactivity”.

Take “QVQLVESGAGLVQAGGSLRLSCAASGSTFYINTMGLYRQAPGKEREFVAAITWSGGSTYYADSVKGRFTISRDNAKNSGYLQMNSLKPEDTAVYYSAADLYVGDMDYRGQGTQVTVSS”: the “polyreactivity (PSR sort gate)” value was “low polyreactivity”.

In the case of “QVQLVESGGGLVQAGGSLRLSCAASGSIFRYYAMGWYRQAPGKESEFVASITYRGGRTYYADSVKGRFTISRDNAKNTVYLQMNSLKPEDTAVYYCAARTRAGAWTSKYHDYWGQGTQVTVSS”, the “polyreactivity (PSR sort gate)” value is on record as “high polyreactivity”.
